Target: DP71L-Flag (Flag-tagged ASFV DP71L), expressed in HEK293T cells
Settings: parent: est. 0.52; read off a plot

Substance	response (Relative IntDEN to β-actin)
STING-Strep (Strep-tagged STING) (from UniProt Q86WV6) L374A	0.14
STING-Strep (Strep-tagged STING) (from UniProt Q86WV6) R375A	0.04

Reference: article PMC11796124
